The target in one test is T1, 人TIM-4 (human, UniProt Q96H15 25-314, limits assumed).
T1 sequence (looked up): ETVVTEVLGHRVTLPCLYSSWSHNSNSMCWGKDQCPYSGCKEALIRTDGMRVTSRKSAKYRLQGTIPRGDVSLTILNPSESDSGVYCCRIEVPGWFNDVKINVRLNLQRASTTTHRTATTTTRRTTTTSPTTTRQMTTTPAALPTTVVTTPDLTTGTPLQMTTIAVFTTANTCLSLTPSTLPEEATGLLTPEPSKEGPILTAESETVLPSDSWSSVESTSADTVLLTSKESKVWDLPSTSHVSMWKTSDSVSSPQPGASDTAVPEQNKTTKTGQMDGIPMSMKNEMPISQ
Briefly: ELISA, plate coated with human TIM-4. In general terms: ELISA stands for enzyme-linked immunosorbent assay.

The target of a further test is T2, 人TIM-1 (human, UniProt Q96D42 21-295, limits assumed).
T2 sequence (looked up): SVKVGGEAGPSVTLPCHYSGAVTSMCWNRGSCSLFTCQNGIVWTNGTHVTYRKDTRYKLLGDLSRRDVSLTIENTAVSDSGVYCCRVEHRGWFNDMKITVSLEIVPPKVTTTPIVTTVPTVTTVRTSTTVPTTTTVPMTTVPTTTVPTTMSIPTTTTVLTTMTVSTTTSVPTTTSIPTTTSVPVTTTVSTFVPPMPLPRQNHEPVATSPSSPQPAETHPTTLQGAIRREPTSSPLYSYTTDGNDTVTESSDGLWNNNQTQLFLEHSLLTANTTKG
Briefly: ELISA, plate coated with human TIM-1.

B1: W3402-2.131.17-z3 (antibody, V domains shown)
VH: QVQLQESGPGLVKPSETLSLTCTVSGFSLTNYGVGWIRQPPGKGLEWIGIMTSGGSTYYNSALRARVTINRDTSKNQFSLKLSSVTAADTAVYYCTRDGTTVETLFDYWGQGTMVTVSS
VL: DIVMTQTPLSLSVTPGQPASISCRSSQSLSDSAGITYLYWYLQKPGQSPQLLIYLASNLGSGVPDRFSGSGSGTDFTLKISRVEAEDVGVYYCMQGIHVPLTFGQGTKLEIK
notes: Humanized monoclonal antibody with a kappa light chain; also called W3402-z3; 人源化变体W3402-z3
For B1, the binding result with 人TIM-4 and with 人TIM-1 was “no binding” throughout.
